Measurements from EP4755401A1, “PHARMACEUTICAL COMPOSITION CONTAINING ANTIBODY-DRUG CONJUGATE OF GLUCOCORTICOID” (Jiangsu Hengrui Pharmaceuticals Co., Ltd., priority 2023, dated 2025).

What was measured:
[1] = Pharmacokinetic test in a mouse model after intratracheal nebulized administration; format: in vivo, C57BL6/J mice; settings: mice, ADC-2 100 µg i.t. once; serum, BALF, lung tissue
From the text: Mice received intratracheal (i.t.) nebulized administration. […] Following blood collection, the mice were anesthetized and immobilized. […] Table 4. Administration scheme

[2] = target: T1, human-derived IL-4Rα on expressing cells (human, UniProt P24394 26-825); experiment: flow cytometry on TF-1 cells expressing IL-4Rα, anti-His-FITC detection
T1 sequence (looked up): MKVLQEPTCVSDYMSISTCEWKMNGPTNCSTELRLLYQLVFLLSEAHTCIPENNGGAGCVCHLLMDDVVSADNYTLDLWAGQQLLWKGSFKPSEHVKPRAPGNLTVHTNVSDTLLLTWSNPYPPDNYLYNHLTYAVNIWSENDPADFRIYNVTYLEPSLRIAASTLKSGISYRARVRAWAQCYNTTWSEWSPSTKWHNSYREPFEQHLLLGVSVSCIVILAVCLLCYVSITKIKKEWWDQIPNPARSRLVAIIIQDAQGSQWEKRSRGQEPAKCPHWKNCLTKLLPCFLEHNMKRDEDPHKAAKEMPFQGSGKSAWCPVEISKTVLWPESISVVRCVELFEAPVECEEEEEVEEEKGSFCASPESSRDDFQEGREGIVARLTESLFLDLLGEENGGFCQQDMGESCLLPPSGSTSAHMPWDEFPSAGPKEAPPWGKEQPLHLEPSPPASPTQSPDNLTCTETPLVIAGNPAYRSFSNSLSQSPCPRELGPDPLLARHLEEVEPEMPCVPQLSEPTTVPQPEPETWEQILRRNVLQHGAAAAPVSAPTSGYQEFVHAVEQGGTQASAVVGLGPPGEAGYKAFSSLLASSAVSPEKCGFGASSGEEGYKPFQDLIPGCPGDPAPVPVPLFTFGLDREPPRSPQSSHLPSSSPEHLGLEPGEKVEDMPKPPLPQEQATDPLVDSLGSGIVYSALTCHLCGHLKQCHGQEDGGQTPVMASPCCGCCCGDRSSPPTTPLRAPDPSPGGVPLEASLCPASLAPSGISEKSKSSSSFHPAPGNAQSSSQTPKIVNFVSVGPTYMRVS

[3] = target: Biotin-labeled human-derived IL-4Rα protein (SinoBiological, CAT# 10402-H08H-B) (human) (UniProt P24394); experiment: SPR, Biacore 8K, biotin-hIL-4Rα captured on SA chip, test protein as analyte
[4] = target: T1, human-derived IL-4Rα on expressing cells; experiment: cell-based or functional assay
[5] = target: T1, human-derived IL-4Rα on expressing cells; experiment: flow cytometry on TF-1 cells expressing IL-4Rα, anti-hFab-FITC detection
[6] = target: T2, Biotin-labeled human-derived IL-4Rα protein (SinoBiological, CAT# 10402-H08H-B) (human, UniProt P24394 26-232, biotin-labeled (site not stated)); experiment: SPR, Biacore 8K, biotin-hIL-4Rα captured on SA chip, test protein as analyte
T2 construct: Bought reagent, captured on an SA sensor chip; also called hIL-4Rα; human-derived IL-4Rα antigen protein
T2 sequence (looked up): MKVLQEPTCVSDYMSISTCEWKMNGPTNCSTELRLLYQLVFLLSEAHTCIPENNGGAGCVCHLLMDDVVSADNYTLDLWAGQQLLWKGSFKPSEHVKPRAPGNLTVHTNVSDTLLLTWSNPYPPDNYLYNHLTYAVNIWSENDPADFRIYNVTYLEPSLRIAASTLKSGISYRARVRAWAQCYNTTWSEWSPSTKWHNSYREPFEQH

With CCCC1O[C@@H]2C[C@H]3[C@@H]4CCC5=CC(=O)C=C[C@]5(C)[C@H]4[C@@H](O)C[C@]3(C)[C@]2(C(=O)CO)O1 (some centres unmarked) [budesonide] the “distribution / exposure after intratracheal administration (in words)” value [1] was “very low in all tissues”.

For AZD1402-TAG (designed binder), the EC50 [2] was 0.0124 nM, the Kd [3] was 0.0213 nM and the koff [3] was 0.000102 s⁻¹. It also gave a kon [3] of 4.77e+06 M⁻¹ s⁻¹.

B1: antibody-drug conjugate ADC-2 (Fab, V domains shown)
VH: EVQLVESGGGLVQPGGSLRLSCAASGFTFSDYGMHWVRQAPGKGLEWVAFISSGSSIIYYADIVKGRSTISRDNAKNTLYLQMNSLRAEDTAVYYCTRGNKRGFFDYWGQGTLVTVSS
VL: EIVLTQSPATLSLSPGERATLSCRASSSVPYMYWYQQKPGQAPRLLIYLTSNLASGIPARFSGSGSGTDFTLTISSLEPEDFAVYYCQQWRAYPPMLTFGGGTKVEIKR
modifications: budesonide drug-linker (compound 2, maleimide) conjugated after TCEP reduction of 25G7-Fab; conjugated residues and drug load not stated
With B1 the “IC50 values for blocking the IL-4 signaling pathway (nM); HEK-Blue IL-4/IL-13 STAT6-SEAP reporter cells” value [4] was 0.68 nM and the “IC50 values for blocking the IL-13 signaling pathway (nM); HEK-Blue IL-4/IL-13 STAT6-SEAP reporter cells” value [4] was 10.6 nM.

B2: 25G7-Fab (Fab, V domains shown)
VH: B1 VH
VL: B1 VL
notes: also called naked anti-25G7-Fab; naked antibody 25G7-Fab
With B2 the “IC50 values for blocking the IL-4 signaling pathway (nM); HEK-Blue IL-4/IL-13 STAT6-SEAP reporter cells” value [4] was 0.61 nM, the “IC50 values for blocking the IL-13 signaling pathway (nM); HEK-Blue IL-4/IL-13 STAT6-SEAP reporter cells” value [4] was 14.6 nM and the EC50 [5] was 0.243 nM. The Kd [6] was 0.0439 nM, the koff [6] was 0.000206 s⁻¹ and the kon [6] was 4.69e+06 M⁻¹ s⁻¹.

B3: hu25G7 (antibody, human IgG4 S228P, kappa, V domains shown)
VH: B1 VH
VL: B1 VL
notes: Full-length humanized anti-IL-4R IgG4 antibody
Molecule B3 has an EC50 [5] of 0.247 nM.
